Test results: patent publication US20220267436A1
pEC50: −log10 of the molar value.

What was measured:
human LAG-3 (human) [1] = target: human LAG-3 (human) (UniProt P18627); assay: flow cytometry, CHO-K1 cells expressing human LAG-3; FIG. 2
human LAG-3 (human) [2] = target: human LAG-3 (human) (UniProt P18627); assay: flow cytometry, CHO-K1 cells expressing human LAG-3; FIG. 1
human CD47 (human) [3] = target: human CD47 (human) (UniProt Q08722); assay: flow cytometry, CHO-K1 cells expressing human CD47; FIG. 3
human CD47 (human) [4] = target: human CD47 (human) (UniProt Q08722); assay: flow cytometry, CHO-K1 cells expressing human CD47; FIG. 4

Sequence of human LAG-3 (human) (P18627 23-525): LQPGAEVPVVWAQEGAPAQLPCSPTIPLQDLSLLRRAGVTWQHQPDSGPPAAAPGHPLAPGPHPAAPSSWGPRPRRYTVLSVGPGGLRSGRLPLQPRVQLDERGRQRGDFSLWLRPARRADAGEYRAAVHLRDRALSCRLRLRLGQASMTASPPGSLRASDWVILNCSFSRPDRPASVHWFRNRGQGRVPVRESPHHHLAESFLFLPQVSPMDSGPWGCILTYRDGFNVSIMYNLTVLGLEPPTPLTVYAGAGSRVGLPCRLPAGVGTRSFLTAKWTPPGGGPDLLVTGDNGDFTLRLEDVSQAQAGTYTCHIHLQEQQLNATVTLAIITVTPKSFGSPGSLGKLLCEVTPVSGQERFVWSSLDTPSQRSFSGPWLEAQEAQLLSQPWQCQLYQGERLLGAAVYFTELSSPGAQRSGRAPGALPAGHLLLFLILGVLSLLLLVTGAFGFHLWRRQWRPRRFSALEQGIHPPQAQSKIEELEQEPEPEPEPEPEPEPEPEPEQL
Sequence of human CD47 (human) (Q08722 19-323): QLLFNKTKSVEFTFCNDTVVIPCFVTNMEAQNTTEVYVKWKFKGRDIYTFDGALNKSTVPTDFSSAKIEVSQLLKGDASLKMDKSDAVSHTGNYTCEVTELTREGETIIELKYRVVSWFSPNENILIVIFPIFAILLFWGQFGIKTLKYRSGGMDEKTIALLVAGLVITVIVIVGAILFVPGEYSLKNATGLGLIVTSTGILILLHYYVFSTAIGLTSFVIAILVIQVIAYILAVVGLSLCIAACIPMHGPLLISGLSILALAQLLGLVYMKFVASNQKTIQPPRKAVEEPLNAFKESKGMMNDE

pEC50 (human LAG-3 (human) [1]): 8.61
pEC50 (human LAG-3 (human) [2]): 8.61
pEC50 (human CD47 (human) [3]): 7.84
pEC50 (human CD47 (human) [4]): 7.84
Substance: Human IgG
